Test results from IntAct's records for PubMed 32296183.

B1: Very-long-chain enoyl-CoA reductase (Homo sapiens), Q9NZ01 (parent)
chain: MKHYEVEILDAKTREKLCFLDKVEPHATIAEIKNLFTKTHPQWYPARQSLRLDPKGKSLKDEDVLQKLPVGTTATLYFRDLGAQISWVTVFLTEYAGPLFIYLLFYFRVPFIYGHKYDFTSSRHTVVHLACICHSFHYIKRLLETLFVHRFSHGTMPLRNIFKNCTYYWGFAAWMAYYINHPLYTPPTYGAQQVKLALAIFVICQLGNFSIHMALRDLRPAGSKTRKIPYPTKNPFTWLFLLVSCPNYTYEVGSWIGFAIMTQCLPVALFSLVGFTQMTIWAKGKHRSYLKEFRDYPPLRMPIIPFLL
partner: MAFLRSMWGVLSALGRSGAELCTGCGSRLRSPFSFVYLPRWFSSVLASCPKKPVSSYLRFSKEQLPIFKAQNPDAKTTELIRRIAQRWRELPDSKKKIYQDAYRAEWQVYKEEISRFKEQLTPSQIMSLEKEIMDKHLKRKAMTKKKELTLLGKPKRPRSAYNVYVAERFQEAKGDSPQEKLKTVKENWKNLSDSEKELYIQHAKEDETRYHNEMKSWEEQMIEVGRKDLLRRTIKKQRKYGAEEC
B2: Golgi SNAP receptor complex member 2 (Homo sapiens), O14653 (parent)
chain: MDPLFQQTHKQVHEIQSCMGRLETADKQSVHIVENEIQASIDQIFSRLERLEILSSKEPPNKRQNARLRVDQLKYDVQHLQTALRNFQHRRHAREQQERQREELLSRTFTTNDSDTTIPMDESLQFNSSLQKVHNGMDDLILDGHNILDGLRTQRLTLKGTQKKILDIANMLGLSNTVMRLIEKRAFQDKYFMIGGMLLTCVVMFLVVQYLT
partner: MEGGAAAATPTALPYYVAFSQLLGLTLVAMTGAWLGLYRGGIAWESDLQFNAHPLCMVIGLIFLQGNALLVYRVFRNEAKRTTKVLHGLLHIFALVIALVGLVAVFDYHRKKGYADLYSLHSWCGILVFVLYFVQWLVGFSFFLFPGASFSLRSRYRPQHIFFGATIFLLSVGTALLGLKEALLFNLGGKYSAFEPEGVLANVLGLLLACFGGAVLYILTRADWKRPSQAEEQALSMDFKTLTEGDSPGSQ
B3: Very-long-chain enoyl-CoA reductase (Homo sapiens), Q9NZ01 (parent)
chain: B1 chain
partner: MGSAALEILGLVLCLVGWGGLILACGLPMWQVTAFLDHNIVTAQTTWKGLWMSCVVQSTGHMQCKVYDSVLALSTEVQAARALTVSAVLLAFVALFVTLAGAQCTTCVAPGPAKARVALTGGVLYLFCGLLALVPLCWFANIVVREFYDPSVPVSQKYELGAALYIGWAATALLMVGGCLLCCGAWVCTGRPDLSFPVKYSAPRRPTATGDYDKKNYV
B4: Golgi SNAP receptor complex member 2 (Homo sapiens), O14653 (parent)
chain: B2 chain
partner: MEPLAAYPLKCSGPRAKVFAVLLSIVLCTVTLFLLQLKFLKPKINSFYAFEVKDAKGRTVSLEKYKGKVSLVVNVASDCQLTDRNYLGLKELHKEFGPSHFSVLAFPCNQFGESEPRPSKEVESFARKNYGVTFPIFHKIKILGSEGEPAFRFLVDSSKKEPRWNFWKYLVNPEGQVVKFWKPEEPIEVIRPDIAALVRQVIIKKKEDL
B5: Golgi SNAP receptor complex member 2 (Homo sapiens), O14653 (parent)
chain: B2 chain
partner: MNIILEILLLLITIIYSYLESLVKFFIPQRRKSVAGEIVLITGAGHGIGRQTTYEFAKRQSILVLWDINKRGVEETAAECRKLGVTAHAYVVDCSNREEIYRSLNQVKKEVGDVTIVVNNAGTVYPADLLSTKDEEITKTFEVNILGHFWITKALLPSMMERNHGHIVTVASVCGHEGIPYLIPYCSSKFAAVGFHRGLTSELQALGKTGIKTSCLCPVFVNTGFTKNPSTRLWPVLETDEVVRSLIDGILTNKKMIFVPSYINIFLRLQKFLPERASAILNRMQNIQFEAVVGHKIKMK
B6: Golgi SNAP receptor complex member 2 (Homo sapiens), O14653 (parent)
chain: B2 chain
partner: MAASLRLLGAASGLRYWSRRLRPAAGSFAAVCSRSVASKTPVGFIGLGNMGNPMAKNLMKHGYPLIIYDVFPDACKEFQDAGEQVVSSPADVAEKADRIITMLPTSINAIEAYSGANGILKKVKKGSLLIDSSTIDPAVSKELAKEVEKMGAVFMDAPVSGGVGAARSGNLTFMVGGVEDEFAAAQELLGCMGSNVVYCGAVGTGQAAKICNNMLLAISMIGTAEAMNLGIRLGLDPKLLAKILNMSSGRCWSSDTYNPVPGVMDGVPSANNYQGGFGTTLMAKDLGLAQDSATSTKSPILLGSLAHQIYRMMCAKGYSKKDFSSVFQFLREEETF
B7: Very-long-chain enoyl-CoA reductase (Homo sapiens), Q9NZ01 (parent)
chain: B1 chain
partner: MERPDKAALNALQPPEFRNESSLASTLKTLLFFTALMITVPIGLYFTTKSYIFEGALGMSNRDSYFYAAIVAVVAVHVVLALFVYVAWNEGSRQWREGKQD
B8: Ceroid-lipofuscinosis neuronal protein 6 (Homo sapiens), Q9NWW5 (parent)
chain: MEATRRRQHLGATGGPGAQLGASFLQARHGSVSADEAARTAPFHLDLWFYFTLQNWVLDFGRPIAMLVFPLEWFPLNKPSVGDYFHMAYNVITPFLLLKLIERSPRTLPRSITYVSIIIFIMGASIHLVGDSVNHRLLFSGYQHHLSVRENPIIKNLKPETLIDSFELLYYYDEYLGHCMWYIPFFLILFMYFSGCFTASKAESLIPGPALLLVAPSGLYYWYLVTEGQIFILFIFTFFAMLALVLHQKRKRLFLDSNGLFLFSSFALTLLLVALWVAWLWNDPVLRKKYPGVIYVPEPWAFYTLHVSSRH
partner: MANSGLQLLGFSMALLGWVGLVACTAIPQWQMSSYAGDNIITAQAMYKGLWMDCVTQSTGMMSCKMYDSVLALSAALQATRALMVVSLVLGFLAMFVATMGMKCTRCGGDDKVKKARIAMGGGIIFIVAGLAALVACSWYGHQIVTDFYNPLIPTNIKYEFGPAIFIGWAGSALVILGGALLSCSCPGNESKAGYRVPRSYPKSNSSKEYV
B9: Ceroid-lipofuscinosis neuronal protein 6 (Homo sapiens), Q9NWW5 (parent)
chain: B8 chain
partner: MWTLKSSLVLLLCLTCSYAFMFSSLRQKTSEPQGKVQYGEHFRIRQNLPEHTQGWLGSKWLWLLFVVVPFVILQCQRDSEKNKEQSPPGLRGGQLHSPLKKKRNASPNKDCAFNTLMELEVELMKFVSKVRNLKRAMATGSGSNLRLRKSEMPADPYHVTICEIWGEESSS
B10: Succinate--CoA ligase [ADP-forming] subunit beta, mitochondrial (Homo sapiens), Q9P2R7 (parent)
chain: MAASMFYGRLVAVATLRNHRPRTAQRAAAQVLGSSGLFNNHGLQVQQQQQRNLSLHEYMSMELLQEAGVSVPKGYVAKSPDEAYAIAKKLGSKDVVIKAQVLAGGRGKGTFESGLKGGVKIVFSPEEAKAVSSQMIGKKLFTKQTGEKGRICNQVLVCERKYPRREYYFAITMERSFQGPVLIGSSHGGVNIEDVAAESPEAIIKEPIDIEEGIKKEQALQLAQKMGFPPNIVESAAENMVKLYSLFLKYDATMIEINPMVEDSDGAVLCMDAKINFDSNSAYRQKKIFDLQDWTQEDERDKDAAKANLNYIGLDGNIGCLVNGAGLAMATMDIIKLHGGTPANFLDVGGGATVHQVTEAFKLITSDKKVLAILVNIFGGIMRCDVIAQGIVMAVKDLEIKIPVVVRLQGTRVDDAKALIADSGLKILACDDLDEAARMVVKLSEIVTLAKQAHVDVKFQLPI
partner: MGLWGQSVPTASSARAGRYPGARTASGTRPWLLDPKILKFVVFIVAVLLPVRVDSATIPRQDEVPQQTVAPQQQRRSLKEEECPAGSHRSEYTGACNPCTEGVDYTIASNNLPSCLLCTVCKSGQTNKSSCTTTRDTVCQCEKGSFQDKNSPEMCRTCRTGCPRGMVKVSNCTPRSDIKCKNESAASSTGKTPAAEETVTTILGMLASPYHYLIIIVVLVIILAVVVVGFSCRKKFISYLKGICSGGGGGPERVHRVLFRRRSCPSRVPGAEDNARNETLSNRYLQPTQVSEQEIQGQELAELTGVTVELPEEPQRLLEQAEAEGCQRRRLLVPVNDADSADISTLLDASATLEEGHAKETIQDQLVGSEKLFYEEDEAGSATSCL
B11: Golgi SNAP receptor complex member 2 (Homo sapiens), O14653 (parent)
chain: B2 chain
partner: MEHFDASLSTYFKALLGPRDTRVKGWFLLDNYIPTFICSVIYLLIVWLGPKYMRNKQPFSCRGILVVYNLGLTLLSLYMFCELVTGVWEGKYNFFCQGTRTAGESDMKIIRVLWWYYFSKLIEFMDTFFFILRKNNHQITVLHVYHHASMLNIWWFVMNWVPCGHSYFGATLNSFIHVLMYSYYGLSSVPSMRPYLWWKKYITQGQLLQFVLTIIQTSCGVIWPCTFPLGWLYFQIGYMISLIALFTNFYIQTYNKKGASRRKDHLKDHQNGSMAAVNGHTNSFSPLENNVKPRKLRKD
B12: Catenin alpha-3 (Homo sapiens), Q9UI47-2 (parent)
chain: MSAETPITLNIDPQDLQVQTFTVEKLLEPLIIQVTTLVNCPQNPSSRKKGRSKRASVLLASVEEATWNLLDKGEKIAQEATVLKDELTASLEEVRKESEALKVSAERFTDDPCFLPKREAVVQAARALLAAVTRLLILADMIDVMCLLQHVSAFQRTFESLKNVANKSDLQKTYQKLGKELENLDYLAFKRQQDLKSPNQRDEIAGARASLKENSPLLHSICSACLEHSDVASLKASKDTVCEEIQNALNVISNASQGIQNMTTPPEPQAATLGSALDELENLIVLNPLTVTEEEIRPSLEKRLEAIISGAALLADSSCTRDLHRERIIAECNAIRQALQDLLSEYMNNAGKKERSNTLNIALDNMCKKTRDLRRQLRKAIIDHVSDSFLDTTVPLLVLIEAAKNGREKEIKEYAAIFHEHTSRLVEVANLACSMSTNEDGIKIVKIAANHLETLCPQIINAALALAARPKSQAVKNTMEMYKRTWENHIHVLTEAVDDITSIDDFLAVSGMFLFF
partner: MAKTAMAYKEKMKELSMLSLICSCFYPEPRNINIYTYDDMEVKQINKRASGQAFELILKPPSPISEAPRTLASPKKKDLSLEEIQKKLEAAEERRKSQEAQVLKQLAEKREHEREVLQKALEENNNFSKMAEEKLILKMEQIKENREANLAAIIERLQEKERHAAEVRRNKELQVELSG
B13: Very-long-chain enoyl-CoA reductase (Homo sapiens), Q9NZ01 (parent)
chain: B1 chain
partner: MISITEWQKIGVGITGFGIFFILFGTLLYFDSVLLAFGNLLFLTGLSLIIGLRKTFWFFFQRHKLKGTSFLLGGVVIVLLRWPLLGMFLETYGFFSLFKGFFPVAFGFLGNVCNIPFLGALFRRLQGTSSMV
B14: Ceroid-lipofuscinosis neuronal protein 6 (Homo sapiens), Q9NWW5 (parent)
chain: B8 chain
partner: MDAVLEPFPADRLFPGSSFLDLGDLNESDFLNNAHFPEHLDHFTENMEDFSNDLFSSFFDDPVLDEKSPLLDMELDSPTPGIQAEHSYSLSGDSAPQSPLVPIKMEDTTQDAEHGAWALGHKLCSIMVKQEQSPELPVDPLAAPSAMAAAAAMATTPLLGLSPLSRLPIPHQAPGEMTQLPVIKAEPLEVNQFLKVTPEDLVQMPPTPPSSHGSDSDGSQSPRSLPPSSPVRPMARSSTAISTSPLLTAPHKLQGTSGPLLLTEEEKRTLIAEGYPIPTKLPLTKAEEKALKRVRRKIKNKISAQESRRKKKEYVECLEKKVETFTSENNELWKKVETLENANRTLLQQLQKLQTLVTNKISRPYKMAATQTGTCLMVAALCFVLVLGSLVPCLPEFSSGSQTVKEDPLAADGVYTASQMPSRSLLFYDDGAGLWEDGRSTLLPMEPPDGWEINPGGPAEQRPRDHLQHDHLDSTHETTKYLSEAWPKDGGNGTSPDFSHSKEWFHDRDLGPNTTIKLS

Variants of: B1
Settings: with tfam_human TFAM

Row | Variant | effect of a mutation on the interaction
1 | P182L | disrupting interaction strength

Variants of: B2
Settings: with cy561_human CYB561, P49447

Row | Variant | effect of a mutation on the interaction
2 | G144W | with no effect

Variants of: B3
Settings: with cld5_human CLDN5, O00501

Row | Variant | effect of a mutation on the interaction
3 | P182L | disrupting interaction strength

Variants of: B4
Settings: with gpx8_human GPX8, Q8TED1

Row | Variant | effect of a mutation on the interaction
4 | G144W | with no effect

Variants of: B5
Settings: with dhb13_human HSD17B13, Q7Z5P4

Row | Variant | effect of a mutation on the interaction
5 | G144W | with no effect

Variants of: B6
Settings: with 3hidh_human HIBADH

Row | Variant | effect of a mutation on the interaction
6 | G144W | disrupting interaction strength

Variants of: B7
Settings: with vma21_human VMA21, Q3ZAQ7

Row | Variant | effect of a mutation on the interaction
7 | P182L | disrupting interaction strength

Variants of: B8
Settings: with cld7_human CLDN7, O95471

Row | Variant | effect of a mutation on the interaction
8 | G123D | with no effect
9 | R6T | disrupting interaction strength

Variants of: B9
Settings: with FAM209A

Row | Variant | effect of a mutation on the interaction
10 | G123D | with no effect

Variants of: B10
Settings: with tr10d_human TNFRSF10D

Row | Variant | effect of a mutation on the interaction
11 | D251N | disrupting interaction strength
12 | G118R | disrupting interaction strength

Variants of: B11
Settings: with elov5_human ELOVL5, Q9NYP7

Row | Variant | effect of a mutation on the interaction
13 | G144W | with no effect

Variants of: B12
Settings: with stmn2_human STMN2, Q93045

Row | Variant | effect of a mutation on the interaction
14 | V94D | with no effect

Variants of: B13
Settings: with got1a_human GOLT1A

Row | Variant | effect of a mutation on the interaction
15 | P182L | with no effect

Variants of: B14
Settings: with cr3l1_human CREB3L1, Q96BA8

Row | Variant | effect of a mutation on the interaction
16 | G123D | with no effect
17 | L47F | with no effect
18 | R6T | with no effect
